Laboratory results: the supplement of paper PMC9112550, “Optimization of the antimicrobial peptide Bac7 by deep mutational scanning” (BMC Biology, 2022)

Tested on: Escherichia coli TOP10
Experiment: shrunken log2 fold change of peptide-encoding DNA abundance (4.5 h post-induction vs induction); higher = less antimicrobial activity (less host growth inhibition)
Details: time post-induction: 4.5 h; library: site-saturation at positions 5, 18, 19, 20
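Note: peptides expressed intracellularly from a pBAD plasmid library in pooled LB shake-flask culture, induced with 0.3% L-arabinose, DNA abundance read by NGS, three biological replicates, DESeq2 with apeglm shrinkage.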

Sequence | shrunken log2 fold change
RRIRMRPPRLPRPRPRPQPFPRP | 0.211
RRIRIRPPRLPRPRPRPMVCPRP | -0.0245
RRIRWRPPRLPRPRPRPMAMPRP | 0.00646
RRIRWRPPRLPRPRPRPFCWPRP | 0.403
RRIRSRPPRLPRPRPRPLEFPRP | -0.195
RRIRDRPPRLPRPRPRPCDNPRP | -0.283
RRIRPRPPRLPRPRPRPPAYPRP | -0.0312
RRIRNRPPRLPRPRPRPFFYPRP | -0.242
RRIRSRPPRLPRPRPRPMKIPRP | 0.108
RRIRSRPPRLPRPRPRPIKMPRP | -0.47
RRIRYRPPRLPRPRPRPMNHPRP | -0.262
RRIRVRPPRLPRPRPRPHIIPRP | -0.204
RRIRIRPPRLPRPRPRPDFCPRP | -0.42
RRIRTRPPRLPRPRPRPAPIPRP | 0.0613
RRIRERPPRLPRPRPRPEWSPRP | 0.0433
RRIRHRPPRLPRPRPRPRIDPRP | -0.511
RRIRSRPPRLPRPRPRPTWMPRP | 0.0331
RRIRHRPPRLPRPRPRPSIYPRP | -0.418
RRIRQRPPRLPRPRPRPQSCPRP | 0.00408
RRIRLRPPRLPRPRPRPHRCPRP | -0.0644
RRIRCRPPRLPRPRPRPSVFPRP | -0.614

Sequence | shrunken log2 fold change
RRIRKRPPRLPRPRPRPVSVPRP | -0.0496
RRIRWRPPRLPRPRPRPSDGPRP | -0.785
RRIRLRPPRLPRPRPRPGTGPRP | -0.0967
RRIRMRPPRLPRPRPRPYRYPRP | -0.133
RRIRMRPPRLPRPRPRPIEAPRP | 0.111
RRIRIRPPRLPRPRPRPEVFPRP | -0.202
RRIRVRPPRLPRPRPRPRFAPRP | 0.527
RRIRLRPPRLPRPRPRPDMVPRP | -0.175
RRIRCRPPRLPRPRPRPIQYPRP | -0.308
RRIRWRPPRLPRPRPRPFDPPRP | 0.0827
RRIRCRPPRLPRPRPRPSSCPRP | -0.211
RRIRKRPPRLPRPRPRPALIPRP | 0.2
RRIRTRPPRLPRPRPRPMYAPRP | -0.121
RRIRIRPPRLPRPRPRPTLCPRP | 0.0503
RRIRIRPPRLPRPRPRPANSPRP | -0.204
RRIRCRPPRLPRPRPRPQTCPRP | 0.034
RRIRPRPPRLPRPRPRPSVAPRP | 0.0839
RRIRTRPPRLPRPRPRPSNQPRP | -0.14
RRIRMRPPRLPRPRPRPCWRPRP | 0.14
RRIRHRPPRLPRPRPRPLAVPRP | 0.0391
RRIRPRPPRLPRPRPRPCTWPRP | 0.025

Sequence | shrunken log2 fold change
RRIRLRPPRLPRPRPRPFGSPRP | -0.0744
RRIRWRPPRLPRPRPRPQWEPRP | -0.0152
RRIRYRPPRLPRPRPRPSLEPRP | -0.0996
RRIRGRPPRLPRPRPRPDNFPRP | 0.169
RRIRWRPPRLPRPRPRPVWGPRP | 0.131
RRIRLRPPRLPRPRPRPHWFPRP | -0.08
RRIRVRPPRLPRPRPRPDVAPRP | -0.0974
RRIRERPPRLPRPRPRPHMSPRP | -0.27
RRIRGRPPRLPRPRPRPPAHPRP | 1.02
RRIRCRPPRLPRPRPRPAHAPRP | 0.373
RRIRGRPPRLPRPRPRPMLHPRP | 0.526
RRIRARPPRLPRPRPRPKKHPRP | 0.417
RRIRTRPPRLPRPRPRPRRWPRP | -0.0464
RRIRVRPPRLPRPRPRPLHAPRP | 0.473
RRIRLRPPRLPRPRPRPMQNPRP | 0.141
RRIRSRPPRLPRPRPRPWYRPRP | -0.119
RRIRVRPPRLPRPRPRPGNGPRP | 0.023
RRIRQRPPRLPRPRPRPQKCPRP | -0.00409
RRIRRRPPRLPRPRPRPVDEPRP | 0.0882
RRIRLRPPRLPRPRPRPCIDPRP | -0.166
RRIRGRPPRLPRPRPRPWLDPRP | 0.0661
